Laboratory results as given in patent publication US20210215708A1 (University of California, published 2021).

Target: BD1-EGFP-HOTag6 (UniProt O60885 44-168)
Test: cell-based or functional assay

brightness of the EGFP droplets after ARV-825: 10 fold
B1: CRBN-EGFP-HOTag3 (other, not shown: large carriers)
chain: MAGEGDQQDAAHNMGNHLPLLPAESEEEDEMEVEDQDSKEAKKPNIINFDTSLPTSHTYLGADMEEFHGRTLHDDDSCQVIPVLPQVMMILIPGQTLPLQLFHPQEVSMVRNLIQKDRTFAVLAYSNVQEREAQFGTTAEIYAYREEQDFGIEIVKVKAIGRQRFKVLELRTQSDGIQQAKVQILPECVLPSTMSAVQLESLNKCQIFPSKPVSREDQCSYKWWQKYQKRKFHCANLTSWPRWLYSLYDAETLMDRIKKQLREWDENLKDDSLPSNPIDFSYRVAACLPIDDVLRIQLLKIGSAIQRLRCELDIMNKCTSLCCKQCQETEITTKNEIFSLSLCGPMAAYVNPHGYVHETLTVYKACNLNLIGRPSTEHSWFPGYAWTVAQCKICASHIGWKFTATKKDMSPQKFWGLTRSALLPTIPDTEDEISPDKVILCLGEIAKSLKEIAKSLKEIAWSLKEIAKSLKG
